Patent US20020177180A1, “pH-indicator based assay for selective enzymes” (ThermoGen, Inc., priority 1998, published 2002)

B1: Subtilisin Carlsberg: commercial protease (protein, UniProt P00780 106-379, looked up)
Subtilisin Carlsberg: AQTVPYGIPLIKADKVQAQGFKGANVKVAVLDTGIQASHPDLNVVGGASFVAGEAYNTDGNGHGTHVAGTVAALDNTTGVLGVAPSVSLYAVKVLNSSGSGSYSGIVSGIEWATTNGMDVINMSLGGASGSTAMKQAVDNAYAKGVVVVAAAGNSGSSGNTNTIGYPAKYDSVIAVGAVDSNSNRASFSSVGAELEVMAPGAGVYSTYPTNTYATLNGTSMASPHVAGAAALILSKHPNLSASQVRNRLSSTATYLGSSFYYGKGLINVEAAAQ
B2: Themsolysin, Type X: commercial protease (protein, UniProt P00800 233-548, looked up)
Thermolysin: ITGTSTVGVGRGVLGDQKNINTTYSTYYYLQDNTRGNGIFTYDAKYRTTLPGSLWADADNQFFASYDAPAVDAHYYAGVTYDYYKNVHNRLSYDGNNAAIRSSVHYSQGYNNAFWNGSQMVYGDGDGQTFIPLSGGIDVVAHELTHAVTDYTAGLIYQNESGAINEAISDIFGTLVEFYANKNPDWEIGEDVYTPGISGDSLRSMSDPAKYGDPDHYSKRYTGTQDNGGVHINSGIINKAAYLISQGGTHYGVSVVGIGRDKLGKIFYRALTQYLTPTSNFSQLRAAAVQSATDLYGSTSQEVASVKQAFDAVGVK
B3: Proteinase K: commercial protease (protein, UniProt P06873 106-384, looked up)
Proteinase K: AAQTNAPWGLARISSTSPGTSTYYYDESAGQGSCVYVIDTGIEASHPEFEGRAQMVKTYYYSSRDGNGHGTHCAGTVGSRTYGVAKKTQLFGVKVLDDNGSGQYSTIIAGMDFVASDKNNRNCPKGVVASLSLGGGYSSSVNSAAARLQSSGVMVAVAAGNNNADARNYSPASEPSVCTVGASDRYDRRSSFSNYGSVLDIFGPGTSILSTWIGGSTRSISGTSMATPHVAGLAAYLMTLGKTTAASACRYIADTANKGDLSNIPFGTVNLLAYNNYQA
B4: Porcine pancreas: commercial lipase from porcine pancreas (protein, UniProt P00591 1-450, looked up)
Pancreatic triacylglycerol …: SEVCFPRLGCFSDDAPWAGIVQRPLKILPWSPKDVDTRFLLYTNQNQNNYQELVADPSTITNSNFRMDRKTRFIIHGFIDKGEEDWLSNICKNLFKVESVNCICVDWKGGSRTGYTQASQNIRIVGAEVAYFVEVLKSSLGYSPSNVHVIGHSLGSHAAGEAGRRTNGTIERITGLDPAEPCFQGTPELVRLDPSDAKFVDVIHTDAAPIIPNLGFGMSQTVGHLDFFPNGGKQMPGCQKNILSQIVDIDGIWEGTRDFVACNHLRSYKYYADSILNPDGFAGFPCDSYNVFTANKCFPCPSEGCPQMGHYADRFPGKTNGVSQVFYLNTGDASNFARWRYKVSVTLSGKKVTGHILVSLFGNEGNSRQYEIYKGTLQPDNTHSDEFDSDVEVGDLQKVKFIWYNNNVINPTLPRVGASKITVERNDGKVYDFCSQETVREEVLLTLNPC

Experiments:
Format in all cases: biochemical
[1] = pH-indicator screening under interfacial activation conditions (Triton X-100); conditions: 2.8 mM Triton X-100 in the wells
Protocol: The procedure was the same as above except that the BES buffer (5 mM, pH 7.2) contained Triton-X 100 (8.45 mM). Final concentration of Triton X-100 in the wells was 2.8 mM.
The reaction conditions in the assay were altered in an attempt to increase the estimated enantioselectivity toward solketal butyrate. For example, the activity of hydrolases, especially lipases, often increases in the presence of an interface. It was reasoned that this interfacial activation may also change the enantioselectivity. The hydrolase library was screened with Triton X-100 (a non-ionic detergent) added to create micelles. The reaction rates increased for eight hydrolases (three lipases and five esterases), decreased for thirty-two hydrolases, and stayed constant for twelve hydrolases. Unfortunately, the estimated enantioselectivities remained unchanged or decreased slightly for the best hydrolases: AOP (decrease from 4.9 to 4.2), ROL (decrease from 11.3 to 9.6), HLE (decrease from 12.2 to 7.6), BSP (decrease from 7.3 to 5.4). […] For example, subtilisin Carlsberg increased from 2.6 to 2.8, esterase from Bacillus stearothermophilus increased from 1.7 to 2.4 and Aspergillus oryzae lipase decreased from 4.95 to 1.8.

[2] = pH-indicator (4-nitrophenol/BES) microplate screening of commercial hydrolases, initial rates of hydrolysis; conditions: for Activity (R): (R)-solketal butyrate 1.0 mM; for Activity (R) / Activity (S) / Activity (±): pH 7.2, 7.1% acetonitrile, 25° C.; for Activity (S): (S)-solketal butyrate 1.0 mM; for Activity (±): (±)-solketal butyrate 1.0 mM, specific activity; for Estimated E: without Triton X-100
Protocol: The hydrolases were dissolved in BES buffer (5.0 mM, pH 7.2) at the concentrations listed in Table 1 (0.5-40 mg solid/mL solution). […] CaCl2 (2 mM) was added to the protease solutions since some proteases require calcium ions to maintain their structure. For hydrolase samples with low protein content, saturated solutions (up to 40 mg solid/ml) were utilized for hydrolase samples and with high protein content were utlized, lower concentrations (typically, 1 mg solid/ml) were utilized. Each solution was centrifuged to remove insoluble material (5 min, 2,000 rpm) and titrated to a final pH of 7.2. The protein concentrations were determined using a dye-binding assay from Bio-Rad (Mississauga, ON) with bovine serum albumin (BSA) as the standard. Solutions were stored in a 96-well assay block ‘mother plate’ equipped with aluminum sealing tape (2 mL maximum volume in each well, Corning Costar, Acton, Mass.) at −20° C.
Hydrolase solutions (5 μL/well) were transferred from the mother plate to a 96-well microtiter plate using an 8-channel pipette. Assay solution (100 μL/well) was quickly added to each well using a 1,200 μL 8-channel pipette. The final concentrations in each well were 1.0 mM substrate, 4.65 mM BES, 0.434 mM 4-nitrophenol, 7.1% acetonitrile. The plate was quickly placed in the microplate reader, shaken for 10 s to ensure complete mixing and the decrease in absorbance at 404 nm was monitored at 25° C. as often as permitted by the microplate software, typically every 11 seconds. […] Data were collected for one hour to ensure slow reactions and reactions with a lag time were detected. Each hydrolysis was carried out in quadruplicate and was averaged. […] For this reason. the first 10 s of data was typically deleted from the calculation of the initial rate. Activities were calculated from slopes in the linear portion of the curve usually over the first two hundred seconds. […] To calculate specific activity (μmol/min/mg protein), the total amount of protein in each well was taken into account.
The assay was used to screen for enantioselective hydrolases in 96-well microplates. Using pure enantiomers, the initial rates of hydrolysis of each enantiomer of solketal butyrate was measured separately. […] Note that the ratio of separately measured initial rates of hydrolysis of the enantiomers is not the true enantioselectivity, so this screening provides only an estimated enantioselectivity. The true enantioselectivity is the ratio of the specificity constants (kcat/KM) for each enantiomer. By measuring initial rates of the enantiomers separately, competitive binding between the two enantiomers was eliminated. At saturating substrate conditions, the relative initial rates equal the relative kcat values; at partially saturating conditions, the initial rates also depend on the KM values. Thus, the ratio of separately measured initial rates ignores some or all of the effect of KM on enantioselectivity. In spite of this inaccuracy, the relative initial rate provides an estimated enantioselectivity.

[3] = Separately measured initial rates of chromogenic esters (404 nm), estimated E; conditions: substrate 1
Protocol: The initial rates of hydrolysis of 4-nitrophenyl esters of pure enantiomers were determined to quickly estimate the enantioselectivity of several lipases towards three common chiral carboxylic acids: 2-phenylpropanoic acid, p-nitro phenyl ester (or, 4-nitrophenyl 2-phenylpropanoate), 1; 2-(4-isobutylphenyl)propanoic acid (commercially available as Ibuprofen), 2; and phenylalanine, 3, FIG. 5. The rates of hydrolysis of 4-nitrophenyl esters were conveniently determined spectrophotometrically by monitoring the rate of release of 4-nitrophenoxide anion at 404 nm, FIG. 6. The ratio of separately measured initial rates of hydrolysis estimated the enantioselectivity. The quick E of phenylalanine, 3, was not measured because of its instability in aqueous solution.
Separately measured initial rates of chromogenic esters. 4-nitrophenyl esters of 2- phenylpropanoic acid, 1, and 2-(4-isobutylphenyl)propanoic acid, 2, were emulsified in aqueous solutions according to Vorderwuibecke. A solution of (R) or (S)-4-nitrophenyl-esster (500 μL of a 7.8 mM solution in acteonitrile) was added dropwise to Tris buffer (9000 μL, 50 mM, pH 7.5) containing 0.45 w/v % Triton X-100 (Pierce Surfact-Amps) and vortexed until clear. This emulsion remained clear for at least 3 hours. To measure the initial rates of hydrolysis, lipase solutions from Table 3 (100 μL) were added to the substrate emulsion (900 μL) in a cuvette at 25° C. and the linear increase in absorbance at 404 nm was monitored for 15 s. The final concentrations in the cuvettes were 0.369 mM substrate, 0.39% Triton X-100, 45 mM Tris buffer, 4.76% acetonitrile. No spontaneous chemical hydrolysis was detected. Solutions of 4-nitrophenyl esters of phenylalanine, 3, in acetonitrile (5 IL of a 50 mM solution in acetonitrile) were added to HEPES buffer (1000 μL, 10 mM , pH 7.5). To measure the rates of hydrolysis, 5 μL of ANL solution was added and the change in absorbance monitored as above.

[4] = Endpoint method: small-scale enzyme-catalyzed hydrolysis, ee by HPLC, true E; conditions: substrate 1
[5] = Quick E of chromogenic ester with resorufin tetradecanoate reference; conditions: substrate 1
Protocol: To reintroduce competition, resorufin tetradecanoate was added as a reference compound, FIG. 7. The initial rates of hydrolysis of (S)-1 were monitored at 404 nm and the reference compound at 572 nm in the same solution. After taking into account the initial concentrations of both substrates, the ratio of these rates yielded the selectivity of the hydrolase for (S)-1 over the reference compound, Eq 8.
A second experiment using (R)-1 and the reference compound yielded the selectivity of (R)-1 over the reference compound. The ratio of these two selectivities yields the enantiomeric ratio, Eq. 9.
Substrate solutions were the same as for separately measured initial rate measurements, but a solution of resorufin tetradecanaote 6 (0.5 mL of a 1.59 mM solution in acetonitrile) was added slowly to the vortexing solutions of pure enantiomers. It was necessary to use a 2-fold increase in the concentration of Triton X-100 to solubilize resorufin tetradecanoate. The emulsions remained clear for at least 2 hours. To measure the initial rates of hydrolysis, lipase solutions from Table 4 (100 μL) was added to the substrate emulsion (900 μL) in a cuvette at 25° C. and the linear increase in absorbances at 404 nm and 574 nm were monitored for 15 s. Rates are calculated in μmol/min/mg protein after taking into account the amount of protein in each cuvette. […] No spontaneous chemical hydrolysis was detected at 404 nm or 574 nm.

[6] = ratio of separately measured initial rates of the enantiomers
[7] = 0.37 mM substrate, 0.38% Triton X-100, 45.2 mM Tris Buffer, 4.76% acetonitrile

Molecule | estimated enantioselectivity with Triton X-100 [1] | Activity (R) [2] | Activity (S) [2] | Activity (±) [2] | Estimated E [2, 6] | Estimated E ([2]; ratio of separately measured initial rates of the enantiomers, listed as subtilisin Carlsberg) | Estimated E [2] | Initial Rate (R) [3, 7] | Initial Rate (S) [3, 7] | Estimated E ([3]; ratio of separately measured initial rates) | C [4] | eep [4] | Endpoint E ([4]; Tris buffer pH 8.0, room temperature) | (R)-enantiomer + ref, rate 404 nm ([5]; 0.351 mM (R)-ester + 0.071 mM resorufin tetradecanoate, Tris pH 8, 25°) | (S)-enantiomer + ref, rate 404 nm ([5]; 0.351 mM (S)-ester + 0.071 mM resorufin tetradecanoate, Tris pH 8, 25°) | Quick E ([5]; error = standard deviation for 3 measurements) | (R)-enantiomer + ref, rate 574 nm ([5]; reference hydrolysis in presence of (R)-ester) | (S)-enantiomer + ref, rate 574 nm ([5]; reference hydrolysis in presence of (S)-ester)
B1 | 2.8 | 0.213 μmol/min/mg protein | 0.082 μmol/min/mg protein | 0.083 μmol/min/mg protein | 2.60 | 2.6 |  |  |  |  |  |  |  |  |  |  |  | 
B2 |  | 0.255 μmol/min/mg protein | 0.738 μmol/min/mg protein | 0.095 μmol/min/mg protein | 2.89 |  | 5 |  |  |  |  |  |  |  |  |  |  | 
B3 |  | 3.08 μmol/min/mg protein | 2.29 μmol/min/mg protein | 2.14 μmol/min/mg protein | 1.24 |  |  |  |  |  |  |  |  |  |  |  |  | 
B4 |  |  |  |  |  |  |  | 0.00403 μmol/min/mg protein | 0.0059 μmol/min/mg protein | 1.4 ± 0.1 | 4.0 | 2.0 | 1.1 ± 0.1 | 0.000659 μmol/min/mg protein | 0.00105 μmol/min/mg protein | 1.4 ± 0.2 | 0.00437 μmol/min/mg protein | 0.000495 μmol/min/mg protein
